Target: GraS (native), fused to the T18 fragment of adenylate cyclase (Staphylococcus aureus) (UniProt Q2G0D9)
Chain of UniProt Q2G0D9 (Q2G0D9 whole entry, the tested form may be a part): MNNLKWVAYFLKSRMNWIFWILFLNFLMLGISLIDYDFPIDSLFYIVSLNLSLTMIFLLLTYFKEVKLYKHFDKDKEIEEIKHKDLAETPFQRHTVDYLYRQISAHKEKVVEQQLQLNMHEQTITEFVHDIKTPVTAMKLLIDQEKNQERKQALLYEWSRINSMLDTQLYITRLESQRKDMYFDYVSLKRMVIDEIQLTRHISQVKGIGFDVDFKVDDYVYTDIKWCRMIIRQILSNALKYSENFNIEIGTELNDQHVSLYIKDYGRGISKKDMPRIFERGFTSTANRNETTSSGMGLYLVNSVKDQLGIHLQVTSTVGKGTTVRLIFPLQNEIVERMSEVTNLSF

Question: Which survival of the ΔEL vraG mutant of JE2 in a 2-hr. killing assay with 2.5 μg/ml LL-37 in the presence of ~300 ng exogenous EL peptide does the source give for “EL peptide of VraG (wild type) (domain or fragment)” here?
Answer: The survival of the ΔEL vraG mutant of JE2 in a 2-hr. killing assay with 2.5 μg/ml LL-37 in the presence of ~300 ng exogenous EL peptide was 40%.

Source: publication PMC7951975
